# Experimental data taken from US20240287172A1 (SCIRHOM, published 2024).
# Changes are numbered by the printed parent chain.
# T1: hiR2-FL-R543Q-T7 (human, UniProt Q6PJF5 1-856)
# T1 sequence: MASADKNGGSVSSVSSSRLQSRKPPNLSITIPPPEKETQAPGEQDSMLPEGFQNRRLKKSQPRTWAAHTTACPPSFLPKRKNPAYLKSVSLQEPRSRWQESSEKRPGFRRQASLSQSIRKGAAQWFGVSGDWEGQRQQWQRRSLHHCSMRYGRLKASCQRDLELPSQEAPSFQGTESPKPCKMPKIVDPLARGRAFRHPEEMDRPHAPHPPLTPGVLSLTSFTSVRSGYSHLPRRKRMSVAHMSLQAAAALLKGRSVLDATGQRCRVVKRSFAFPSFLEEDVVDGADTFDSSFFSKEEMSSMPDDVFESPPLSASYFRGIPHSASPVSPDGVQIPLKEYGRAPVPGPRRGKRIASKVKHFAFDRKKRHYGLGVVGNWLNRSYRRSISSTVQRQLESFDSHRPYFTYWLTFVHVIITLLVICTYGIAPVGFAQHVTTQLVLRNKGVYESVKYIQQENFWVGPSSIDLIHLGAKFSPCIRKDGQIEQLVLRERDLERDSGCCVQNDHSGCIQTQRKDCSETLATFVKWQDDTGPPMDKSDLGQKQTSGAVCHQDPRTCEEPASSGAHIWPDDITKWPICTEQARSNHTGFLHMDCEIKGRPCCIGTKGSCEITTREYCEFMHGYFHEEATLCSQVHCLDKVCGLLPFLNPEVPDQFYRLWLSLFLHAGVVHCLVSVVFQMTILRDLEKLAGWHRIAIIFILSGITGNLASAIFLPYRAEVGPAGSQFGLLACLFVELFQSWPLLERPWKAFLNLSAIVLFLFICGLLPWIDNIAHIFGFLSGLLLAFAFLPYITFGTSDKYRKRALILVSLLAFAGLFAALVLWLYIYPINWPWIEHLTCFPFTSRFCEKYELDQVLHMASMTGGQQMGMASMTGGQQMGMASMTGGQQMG
# T2: hiR1-FL-WT-T7 (human, UniProt Q96CC6 1-855)
# T2 construct: on MEF-DKO cells
# T2 sequence: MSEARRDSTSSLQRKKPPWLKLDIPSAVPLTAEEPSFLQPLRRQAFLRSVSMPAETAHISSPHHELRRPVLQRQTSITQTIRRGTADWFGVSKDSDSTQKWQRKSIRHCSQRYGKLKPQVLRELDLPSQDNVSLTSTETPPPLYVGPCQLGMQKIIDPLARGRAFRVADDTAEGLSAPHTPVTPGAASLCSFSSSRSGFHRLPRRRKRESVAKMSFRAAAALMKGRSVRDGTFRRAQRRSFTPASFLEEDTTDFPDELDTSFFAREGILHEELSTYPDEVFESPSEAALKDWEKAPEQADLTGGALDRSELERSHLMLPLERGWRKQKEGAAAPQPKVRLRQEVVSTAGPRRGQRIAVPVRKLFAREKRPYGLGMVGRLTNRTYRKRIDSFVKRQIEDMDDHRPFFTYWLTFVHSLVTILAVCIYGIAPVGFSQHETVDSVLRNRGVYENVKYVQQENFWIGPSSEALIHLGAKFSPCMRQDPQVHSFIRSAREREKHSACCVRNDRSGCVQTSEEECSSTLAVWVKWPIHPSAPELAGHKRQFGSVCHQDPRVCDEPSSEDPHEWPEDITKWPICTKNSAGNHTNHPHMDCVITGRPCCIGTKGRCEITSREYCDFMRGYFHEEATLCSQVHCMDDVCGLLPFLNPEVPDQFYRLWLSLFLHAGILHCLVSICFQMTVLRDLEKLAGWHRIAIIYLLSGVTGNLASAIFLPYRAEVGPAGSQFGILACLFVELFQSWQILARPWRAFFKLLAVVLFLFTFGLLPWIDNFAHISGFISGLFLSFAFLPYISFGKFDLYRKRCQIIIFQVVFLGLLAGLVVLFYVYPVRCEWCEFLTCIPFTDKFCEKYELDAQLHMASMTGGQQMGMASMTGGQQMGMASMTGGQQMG
# B1: antibody 5 (antibody, V domains shown)
# VH: QVTLKESGPGILQPSQTLSLTCSFSGFSLSTFGMGVGWIRQPSGKGLEWLAHIWWDDEKYYNSALKSRLTISKATSKNQAFLKIANVDTADTATYYCARISNYGSNYWYFNVWGTGTTVTVSS
# VL: QVVLTQSPALMSASPGEKVTMTCSAGSSVSCMYWYQQKPGSSPRVLIYDTSNLASGVPARFTGSGSGTSYSLTISRMEAEDAASYYCQQWNSYPLTFGAGTKLELK
# notes: mouse IgG, kappa light chain; also called clone #5; purified antibody 5
# B2: antibody 42 (antibody, V domains shown)
# VH: B1 VH with F24L, M34R, S63P, A74D, A80V, K83R, S101Q, N111D
# VL: LIVLTQSPAIMSASPGEKVTMTCGATSRISYMFWYQQKPGSSPRVLIYDTSNLASGVPVRFSGSGSGTSYSLTISRVEAEDVATYYCQQWNSYPLTFGAGTKLELK
# notes: mouse IgG, kappa light chain; also called clone #42; purified antibody 42
# B3: antibody 43 (antibody, V domains shown)
# VH: B1 VH with T3A, P42S, H52N, E58D, S63P, A74D, T75A, S101G, N111D
# VL: B2 VL with L1Q, K18R, G24S, T26N, F33Y, V45L, V77M, V82A, Y86N, N91S
# notes: mouse IgG, kappa light chain; also called clone #43; purified antibody 43
# B4: antibody 44 (antibody, V domains shown)
# VH: B1 VH with G44E, E58D, S63P, A74D, A80I, A85T, D91E, A98S, S101G, N111D
# VL: QIVLTQSPAVMSASPGEKVTMTCTASSSVYYMYWYQQTPGSSPRLLIYDTSNLASGVPVRFSGSGSGTSYSLTISRMEAEDAATYYCQQWNTYPLTFGAGTKLELK
# notes: mouse IgG, kappa light chain; also called clone #44; purified antibody 44
# B5: antibody 22 (antibody, V domains shown)
# VH: B1 VH with A80V
# VL: B1 VL with C31Y, S84T
# notes: mouse IgG, kappa light chain; also called clone #22; purified antibody 22
# B6: antibody 34 (antibody, V domains shown)
# VH: QVTLKESGPGILQPSQTLSLTCSFSGFSLSTFSLGVGWIRQSSGKGLEWLAHIWWDDEKYYNPALKSRLTISKDTSKNQVFLKIANVDAADTATYYCARAYYSKSYYALDYWGQGTSVTVSS
# VL: DIQMTQSPSSLSASLGERVSLTCRASQEISGYLSWLQQKPDGTIKRLIYAASTLDSGVPKRFSGSRSGSDYSLAISSLESEDFADYYCLQYANFPFTFGSGTKLEIK
# notes: mouse IgG, kappa light chain; also called clone #34; purified antibody 34
# B7: antibody 3 (antibody, V domains shown)
# VH: QVTLKESGPGILQPSQTLSLTCSFSGFSLTTFAMGIGWVRQPSGKGLEWLAHIWWDGEKYNNPVLKSRLTISKDTSKNQVFLRIANVDTPDTATYYCARISSIYYIIDNWGQGTSVTVSS
# VL: DIVLTQSPATLSVTPGHSVSLSCRASQSISNNLHWYQKKSHESPRLLIKYVSQSISGIPSRFSGSGSGTDFTLSINSVETEDFGMYFCQQSYNWPLTFGAGTKLELK
# notes: mouse IgG, kappa light chain; also called clone #3; purified antibody 3
# B8: antibody 50 (antibody, V domains shown)
# VH: QVQLQQSGAELVRPGASVKVSCKASGYAFSNYLIEWVKQRPGQGLEWIGVINPGSGFTKYNEKFKGKATLTADKSSSTAYMQLSSLTSEDSAVYFCARGLYRAMDYWGQGTSVTVSS
# VL: DIQMTQSPASQSASLGESVTITCLASQTIGTWLAWYQQKPGKSPQLLIYAAASLADGVPSRFSGGGSGTKFSFKISSLQAEDFVNYYCQQIYSTPYTFGGGTKLEIK
# notes: mouse IgG, kappa light chain; also called clone #50; purified antibody 50
# B9: antibody 16 (antibody, V domains shown)
# VH: QVTLKESGPGILQPSQTLSLTCSFSGFSLSTFALGVGWIRQPSGRGLEWLAHIWWDDDKYYNPALKSRLTISKDTSKNHVFLKIANVDTADTATYYCARITTYYYGMDYWGQGTSVTVSS
# VL: B7 VL with T5S, H17D, S22F, S30G, N32H, K38Q, K39E, E42A, V51A
# notes: mouse IgG, kappa light chain; also called clone #16; purified antibody 16
# B10: antibody 48 (antibody, V domains shown)
# VH: B8 VH with A9T, A16T, S30T, A79V, Q82H
# VL: B8 VL with G30A, A50G, A52T, S53T, N85S, I91L
# notes: mouse IgG, kappa light chain; also called clone #48; purified antibody 48
# Biological target: T1, hiR2-FL-R543Q-T7
# Assay: FACS, MEF-DKO cells, 3 µg/ml
# Text: In brief, immortalized MEF-DKO-hiR2-FL-WT-T7 cells, MEF-DKO-miR2-FL-WT-T7 cells and MEF-DKO-hiR2-FL-R441K-T7, MEF-DKO-hiR2-FL-K443R-T7, MEF-DKO-hiR2-FL-V459I-T7, MEF-DKO-hiR2-FL-G481Q-T7, MEF-DKO-hiR2-FL-L488R-T7, MEF-DKO-hiR2-FL-L493I-T7, MEF-DKO-hiR2-FL-D496T-T7, MEF-DKO-hiR2-FL-H505R-T7, MEF-DKO-hiR2-FL-Q512L-T7, MEF-DKO-hiR2-FL- R513K-T7, MEF-DKO-hiR2-FL-D528N-T7, MEF-DKO-hiR2-FL-P533-T7, MEF-DKO-hiR2-FL-M534S-T7, MEF-DKO-hiR2-FL-G540S-T7, MEF-DKO-hiR2-FL-R543Q-T7, MEF-DKO-hiR2-FL-T544P-T7, MEF-DKO-hiR2-FL-G546A-T7, MEF-DKO-hiR2-FL-A547V-T7, MEF-DKO-hiR2-FL-R582Q-T7, MEF-DKO-hiR2-FL-F588L-T7, MEF-DKO-hiR2-FL-M591I-T7, MEF-DKO-hiR2-FL-E594K-T7, MEF-DKO-hiR2-FL-E626D-T7, MEF-DKO-hiR2-FL-L657I-T7, and MEF-DKO-hiR2-FL-H835Y-T7 cells were harvested with 10 mM EDTA in PBS, washed and resuspended in FACS buffer (PBS, 3% FBS, 0.05% sodium azide), and seeded in Nunc U-bottom 96-well plates (Thermo Fisher Scientific, USA) at approximately 3×10⁵ cells per well.
# To pellet cells and remove supernatants, the plates were centrifuged at 1,500 rpm and 4° C. for 3 minutes. For primary staining, cells were resuspended in 100 μl per well of either FACS buffer alone (controls) or the purified antibodies 3, 5, 16, 22, 34, 42, 43, 44, 48, and 50 of the invention at 3 μg/ml FACS buffer and incubated on ice for 1 hour. Afterwards, plates were centrifuged at 1,500 rpm and 4° C. for 3 minutes and washed twice with 200 μl per well of FACS buffer. For secondary staining, cells were spun down and resuspended in 100 μl per well of PE-conjugated goat anti-mouse IgG F(ab′)2 detection fragment (Dianova, Germany) diluted 1:100 in FACS buffer. Protected from light, the cell suspensions were incubated on ice for 1 hour. Plates were then centrifuged at 1,500 rpm and 4° C. for 3 minutes and washed three times with 200 μl per well of FACS buffer. Finally, cells were resuspended in 150 μl per well of FACS buffer and analyzed using a BD Accuri™ C6 Plus flow cytometer (Becton Dickinson, Germany).
row,Binder,loss of binding vs wild type
1,B1,≥ 95%
2,B2,≥ 95%
3,B3,≥ 95%
4,B4,≥ 60%
5,B5,≥ 60%
6,B6,≥ 95%
7,B7,≥ 60%
8,B8,≥ 30%

# Biological target: T2, hiR1-FL-WT-T7
# Assay: FACS, MEF-DKO cells, 3 µg/ml
row,Binder,loss of binding vs wild type
1,B1,≥ 95%
2,B2,≥ 95%
3,B3,≥ 95%
4,B4,≥ 95%
5,B5,≥ 95%
6,B6,≥ 95%
7,B9,≥ 95%
8,B7,≥ 95%
9,B10,≥ 60%
10,B8,≥ 95%
